Test results reported in IntAct's records for PubMed 31515488.

B1: Caspase-9 (Homo sapiens), P55211 (parent)
chain: MDEADRRLLRRCRLRLVEELQVDQLWDALLSRELFRPHMIEDIQRAGSGSRRDQARQLIIDLETRGSQALPLFISCLEDTGQDMLASFLRTNRQAAKLSKPTLENLTPVVLRPEIRKPEVLRPETPRPVDIGSGGFGDVGALESLRGNADLAYILSMEPCGHCLIINNVNFCRESGLRTRTGSNIDCEKLRRRFSSLHFMVEVKGDLTAKKMVLALLELAQQDHGALDCCVVVILSHGCQASHLQFPGAVYGTDGCPVSVEKIVNIFNGTSCPSLGGKPKLFFIQACGGEQKDHGFEVASTSPEDESPGSNPEPDATPFQEGLRTFDQLDAISSLPTPSDIFVSYSTFPGFVSWRDPKSGSWYVETLDDIFEQWAHSEDLQSLLLRVANAVSVKGIYKQMPGCFNFLRKKLFFKTS
B2: Pachytene checkpoint protein 2 homolog (Homo sapiens), Q15645 (parent)
chain: MDEAVGDLKQALPCVAESPTVHVEVHQRGSSTAKKEDINLSVRKLLNRHNIVFGDYTWTEFDEPFLTRNVQSVSIIDTELKVKDSQPIDLSACTVALHIFQLNEDGPSSENLEEETENIIAANHWVLPAAEFHGLWDSLVYDVEVKSHLLDYVMTTLLFSDKNVNSNLITWNRVVLLHGPPGTGKTSLCKALAQKLTIRLSSRYRYGQLIEINSHSLFSKWFSESGKLVTKMFQKIQDLIDDKDALVFVLIDEVESLTAARNACRAGTEPSDAIRVVNAVLTQIDQIKRHSNVVILTTSNITEKIDVAFVDRADIKQYIGPPSAAAIFKIYLSCLEELMKCQIIYPRQQLLTLRELEMIGFIENNVSKLSLLLNDISRKSEGLSGRVLRKLPFLAHALYVQAPTVTIEGFLQALSLAVDKQFEERKKLAAYI
partner: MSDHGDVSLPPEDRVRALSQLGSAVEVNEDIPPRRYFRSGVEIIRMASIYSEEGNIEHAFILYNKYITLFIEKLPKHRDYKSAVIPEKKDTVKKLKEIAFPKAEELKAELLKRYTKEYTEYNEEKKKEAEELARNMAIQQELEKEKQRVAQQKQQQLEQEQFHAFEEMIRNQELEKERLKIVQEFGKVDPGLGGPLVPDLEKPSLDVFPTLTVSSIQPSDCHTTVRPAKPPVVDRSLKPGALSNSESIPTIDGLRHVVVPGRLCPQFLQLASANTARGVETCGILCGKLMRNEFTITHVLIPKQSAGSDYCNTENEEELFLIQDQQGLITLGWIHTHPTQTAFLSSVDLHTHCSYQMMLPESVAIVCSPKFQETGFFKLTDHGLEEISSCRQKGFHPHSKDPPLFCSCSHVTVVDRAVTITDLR
B3: BTB/POZ domain-containing protein KCTD6 (Homo sapiens), Q8NC69 (parent)
chain: MDNGDWGYMMTDPVTLNVGGHLYTTSLTTLTRYPDSMLGAMFGGDFPTARDPQGNYFIDRDGPLFRYVLNFLRTSELTLPLDFKEFDLLRKEADFYQIEPLIQCLNDPKPLYPMDTFEEVVELSSTRKLSKYSNPVAVIITQLTITTKVHSLLEGISNYFTKWNKHMMDTRDCQVSFTFGPCDYHQEVSLRVHLMEYITKQGFTIRNTRVHHMSERANENTVEHNWTFCRLARKTDD
B4: Protein LDOC1 (Homo sapiens), O95751 (parent)
chain: MVDELVLLLHALLMRHRALSIENSQLMEQLRLLVCERASLLRQVRPPSCPVPFPETFNGESSRLPEFIVQTASYMLVNENRFCNDAMKVAFLISLLTGEAEEWVVPYIEMDSPILGDYRAFLDEMKQCFGWDDDEDDDDEEEEDDY
partner: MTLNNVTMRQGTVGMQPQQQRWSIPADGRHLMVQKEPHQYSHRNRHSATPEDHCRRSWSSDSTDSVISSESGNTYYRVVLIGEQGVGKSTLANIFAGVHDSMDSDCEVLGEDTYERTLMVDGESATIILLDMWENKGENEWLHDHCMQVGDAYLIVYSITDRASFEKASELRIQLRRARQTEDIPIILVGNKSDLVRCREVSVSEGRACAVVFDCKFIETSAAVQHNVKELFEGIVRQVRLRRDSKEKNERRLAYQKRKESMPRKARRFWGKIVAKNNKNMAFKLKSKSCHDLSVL
B5: Pleckstrin homology domain-containing family G member 6 (Homo sapiens), Q3KR16 (parent)
chain: MKAFGPPHEGPLQGLVASRIETYGGRHRASAQSTAGRLYPRGYPVLDPSRRRLQQYVPFARGSGQARGLSPMRLRDPEPEKRHGGHVGAGLLHSPKLKELTKAHELEVRLHTFSMFGMPRLPPEDRRHWEIGEGGDSGLTIEKSWRELVPGHKEMSQELCHQQEALWELLTTELIYVRKLKIMTDLLAAGLLNLQRVGLLMEVSAETLFGNVPSLIRTHRSFWDEVLGPTLEETRASGQPLDPIGLQSGFLTFGQRFHPYVQYCLRVKQTMAYAREQQETNPLFHAFVQWCEKHKRSGRQMLCDLLIKPHQRITKYPLLLHAVLKRSPEARAQEALNAMIEAVESFLRHINGQVRQGEEQESLAAAAQRIGPYEVLEPPSDEVEKNLRPFSTLDLTSPMLGVASEHTRQLLLEGPVRVKEGREGKLDVYLFLFSDVLLVTKPQRKADKAKVIRPPLMLEKLVCQPLRDPNSFLLIHLTEFQCVSSALLVHCPSPTDRAQWLEKTQQAQAALQKLKAEEYVQQKRELLTLYRDQDRESPSTRPSTPSLEGSQSSAEGRTPEFSTIIPHLVVTEDTDEDAPLVPDDTSDSGYGTLIPGTPTGSRSPLSRLRQRALRRDPRLTFSTLELRDIPLRPHPPDPQAPQRRSAPELPEGILKGGSLPQEDPPTWSEEEDGASERGNVVVETLHRARLRGQLPSSPTHADSAGESPWESSGEEEEEGPLFLKAGHTSLRPMRAEDMLREIREELASQRIEGAEEPRDSRPRKLTRAQLQRMRGPHIIQLDTPLSASEV
partner: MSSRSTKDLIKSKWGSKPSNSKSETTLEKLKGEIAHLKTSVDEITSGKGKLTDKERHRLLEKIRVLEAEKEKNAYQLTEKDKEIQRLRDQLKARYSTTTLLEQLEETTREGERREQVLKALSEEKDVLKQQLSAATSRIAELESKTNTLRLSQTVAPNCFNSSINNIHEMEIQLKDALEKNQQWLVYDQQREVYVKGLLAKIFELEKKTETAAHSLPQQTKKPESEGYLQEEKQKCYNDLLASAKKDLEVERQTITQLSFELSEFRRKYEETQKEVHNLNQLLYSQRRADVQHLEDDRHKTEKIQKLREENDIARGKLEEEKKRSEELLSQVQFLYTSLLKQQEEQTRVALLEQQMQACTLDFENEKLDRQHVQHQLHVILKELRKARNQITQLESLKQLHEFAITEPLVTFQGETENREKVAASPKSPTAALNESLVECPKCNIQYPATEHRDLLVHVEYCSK
B6: 3-hydroxyanthranilate 3,4-dioxygenase (Homo sapiens), P46952 (parent)
chain: MERRLGVRAWVKENRGSFQPPVCNKLMHQEQLKVMFIGGPNTRKDYHIEEGEEVFYQLEGDMVLRVLEQGKHRDVVIRQGEIFLLPARVPHSPQRFANTVGLVVERRRLETELDGLRYYVGDTMDVLFEKWFYCKDLGTQLAPIIQEFFSSEQYRTGKPIPDQLLKEPPFPLSTRSIMEPMSLDAWLDSHHRELQAGTPLSLFGDTYETQVIAYGQGSSEGLRQNVDVWLWQLEGSSVVTMGGRRLSLAPDDSLLVLAGTSYAWERTQGSVALSVTQDPACKKPLG
partner: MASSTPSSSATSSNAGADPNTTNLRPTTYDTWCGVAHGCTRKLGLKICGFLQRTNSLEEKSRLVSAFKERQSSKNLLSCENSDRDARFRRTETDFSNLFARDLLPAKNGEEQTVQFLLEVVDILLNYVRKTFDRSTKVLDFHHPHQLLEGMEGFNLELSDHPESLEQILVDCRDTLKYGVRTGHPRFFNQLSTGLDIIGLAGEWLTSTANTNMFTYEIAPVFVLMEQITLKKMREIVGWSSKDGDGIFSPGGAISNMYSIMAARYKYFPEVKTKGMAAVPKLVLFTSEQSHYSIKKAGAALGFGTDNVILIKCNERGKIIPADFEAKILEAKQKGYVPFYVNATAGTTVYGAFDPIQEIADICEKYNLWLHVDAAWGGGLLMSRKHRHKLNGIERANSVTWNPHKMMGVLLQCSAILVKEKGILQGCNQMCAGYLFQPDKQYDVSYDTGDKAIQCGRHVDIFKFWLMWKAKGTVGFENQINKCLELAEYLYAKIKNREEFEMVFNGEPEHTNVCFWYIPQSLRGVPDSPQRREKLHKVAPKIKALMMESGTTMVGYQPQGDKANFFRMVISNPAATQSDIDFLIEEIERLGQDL

Variants of: B1
Details: with birc2_human BIRC2, Q13490
birc2_human BIRC2, Q13490, sequence (Q13490 whole entry): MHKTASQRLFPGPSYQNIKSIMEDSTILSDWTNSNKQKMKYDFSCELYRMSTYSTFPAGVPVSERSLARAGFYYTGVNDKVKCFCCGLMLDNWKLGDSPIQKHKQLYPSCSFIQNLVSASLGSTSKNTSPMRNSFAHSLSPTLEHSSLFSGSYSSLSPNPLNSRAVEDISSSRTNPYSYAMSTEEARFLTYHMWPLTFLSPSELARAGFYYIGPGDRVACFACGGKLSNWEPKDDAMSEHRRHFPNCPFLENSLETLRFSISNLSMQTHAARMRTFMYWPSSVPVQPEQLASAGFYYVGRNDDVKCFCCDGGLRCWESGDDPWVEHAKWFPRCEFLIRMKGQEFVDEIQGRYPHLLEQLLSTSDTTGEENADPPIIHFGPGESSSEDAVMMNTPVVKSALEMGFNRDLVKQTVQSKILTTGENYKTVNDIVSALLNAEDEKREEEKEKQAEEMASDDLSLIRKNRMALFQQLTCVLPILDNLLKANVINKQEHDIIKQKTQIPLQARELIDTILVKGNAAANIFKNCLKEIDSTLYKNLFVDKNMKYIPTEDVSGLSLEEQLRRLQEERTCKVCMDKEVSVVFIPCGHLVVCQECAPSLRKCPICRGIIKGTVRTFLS

Row | Variant | effect of a mutation on the interaction
1 | P336S | with no effect
2 | R178C | disrupting interaction strength

Variants of: B1
Details: with xiap_human XIAP

Row | Variant | effect of a mutation on the interaction
3 | P336S | with no effect

Variants of: B2
Details: with stabp_human STAMBP

Row | Variant | effect of a mutation on the interaction
4 | G409E | with no effect

Variants of: B3
Details: with prp31_human PRPF31, Q8WWY3
prp31_human PRPF31, Q8WWY3, sequence (Q8WWY3 whole entry): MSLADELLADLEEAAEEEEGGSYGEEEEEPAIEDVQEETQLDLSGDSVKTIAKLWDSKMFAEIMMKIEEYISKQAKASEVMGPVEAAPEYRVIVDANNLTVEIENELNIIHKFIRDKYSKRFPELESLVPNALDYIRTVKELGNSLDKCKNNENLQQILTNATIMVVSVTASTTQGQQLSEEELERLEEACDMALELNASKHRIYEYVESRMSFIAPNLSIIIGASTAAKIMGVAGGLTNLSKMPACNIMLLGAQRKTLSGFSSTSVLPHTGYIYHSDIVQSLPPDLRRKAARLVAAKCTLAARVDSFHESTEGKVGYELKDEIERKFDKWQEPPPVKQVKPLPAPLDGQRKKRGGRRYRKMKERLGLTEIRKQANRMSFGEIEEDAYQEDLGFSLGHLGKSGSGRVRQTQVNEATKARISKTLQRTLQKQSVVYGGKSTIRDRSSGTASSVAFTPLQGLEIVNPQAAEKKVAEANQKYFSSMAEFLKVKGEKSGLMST

Row | Variant | effect of a mutation on the interaction
5 | N207S | with no effect

Variants of: B3
Details: with echp_human EHHADH

Row | Variant | effect of a mutation on the interaction
6 | N207S | with no effect

Variants of: B4
Details: with gem_human GEM

Row | Variant | effect of a mutation on the interaction
7 | L12H | disrupting interaction strength

Variants of: B5
Details: with cep55_human CEP55, Q53EZ4

Row | Variant | effect of a mutation on the interaction
8 | R763Q | with no effect
9 | R627W | with no effect
10 | P542S | with no effect

Variants of: B6
Details: with dce1_human GAD1, Q99259

Row | Variant | effect of a mutation on the interaction
11 | I37V | with no effect
12 | T42S | with no effect
